According to PMC9723502:

Target: CsrA-His10 (Escherichia coli K-12, UniProt P69913 1-61)
Experiment: EMSA

GGGUUCAGGGACGUCAUUACGGGCAGGAUUGCCCACCC (structured_RNA) [FimR2-G23A-G24U]: no binding.

GGGUUCAAAGACGUCAUUACGGGCAGGGAUGCCCACCC (structured_RNA) [FimR2 ssRegion mutant]: binds.
